From PMC3279196 (Journal of Molecular Biology, 2011) come the findings set out here.

Where two headings read alike, the source gives them in different places.

The target of data set [1] is T1, CheW from Thermotoga maritima (T. maritima, UniProt Q56311 1-151).
T1 sequence (looked up): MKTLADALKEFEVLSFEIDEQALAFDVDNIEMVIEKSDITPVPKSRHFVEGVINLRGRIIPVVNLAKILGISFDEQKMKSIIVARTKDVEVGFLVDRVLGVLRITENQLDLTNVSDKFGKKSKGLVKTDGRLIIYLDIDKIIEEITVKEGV
Briefly: NMR titration.

The data set “static light scattering” concerns the molecule itself. The experiment in a line: static light scattering.
For data set [2], the target named is T1, CheW from Thermotoga maritima. Briefly: NMR titration. This is another data set of the same source.

B1: TM0014(90-206) with N-terminal tyrosine and His5 tag (domain or fragment, T. maritima, UniProt Q7DFA3 90-206, looked up)
chain: KSGTNVDQIVERVKEASSQIGETLENIRSIEKLIQNIMRIARETNILALNATIEAARAGEAGKGFMIVANEVQNLSNETNEVTKQIVEKAREILESSQRSLENLEFMANLFETVGKT
As a reminder, the Kd is a measure of binding affinity in units of concentration. Low readings indicate higher affinity, high ones lower affinity. Usually stoichiometry N stands for a count of units in the complex or per binding partner. For the molecule B1, the Kd is roughly 300 µM in data set [1] and roughly 1200 µM in data set [2]. Moreover, the “stoichiometry N” value in “static light scattering” worked out at 2.
